Assay results as given in patent publication US20230235040A1 (ALMIRALL S A, published 2023).

How the values were obtained:
[1] = biological target: T1, cy-IL-36β-Avi (in-vivo biotinylated) (cynomolgus monkey, site-specifically biotinylated in vivo on the C-terminal AviTag (BirA)); assay: SPR (Biacore 8K), in-vivo biotinylated IL-36-Avi captured on CAP chip, bispecific IgG injected, 25°C
T1 construct: also called cy-IL-36J-Avi [sic]; biotinylated cyno IL-36β-Avi
T1 chain: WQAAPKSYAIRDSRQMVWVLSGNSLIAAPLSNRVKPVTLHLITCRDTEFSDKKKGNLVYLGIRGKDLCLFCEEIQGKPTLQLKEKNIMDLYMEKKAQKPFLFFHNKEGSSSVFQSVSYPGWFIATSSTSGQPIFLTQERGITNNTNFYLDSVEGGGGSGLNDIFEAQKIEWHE
Method: (§1) Surface plasmon resonance (SPR) analysis was used to determine the binding affinity for human and cynomolgus monkey IL-36 (“hu-IL-36” and “cy-IL-36,” respectively) using a BIACORE™ 8K instrument as described in Example 2. […] Briefly, a 1:4 dilution of Biotin CAPture Reagent (GE Healthcare) into HBS-EP buffer (0.01 M HEPES pH 7.4, 0.15 M NaCl, 3 mM EDTA, 0.005% Surfactant P20) was applied to a CAP sensor chip at 2 μL/min flow rate. For kinetics measurements, 1 nM biotinylated human and cyno IL-36α-Avi, IL-36γ-Avi; 0.8 nM biotinylated human and cyno IL-36β-Avi were captured at 10 μL/min to achieve 15-25 response units in the second flow cell (FC2). FC1 was kept as a reference. […] The sensorgram was recorded and subject to reference and buffer subtraction before data analysis with the BIACORE® 8K Evaluation Software (version 1.1.1.7442). […] Association rates (kₒₙ) and dissociation rates (koff) were calculated using a simple one-to-one Langmuir binding model. The equilibrium dissociation constant (KD) was calculated as the ratio of koff/kₒₙ.

[2] = biological target: T2, hu-IL-36γ-Avi (in-vivo biotinylated) (human, site-specifically biotinylated in vivo on the C-terminal AviTag (BirA)); assay: as above
T2 construct: also called biotinylated human IL-36γ-Avi
T2 chain: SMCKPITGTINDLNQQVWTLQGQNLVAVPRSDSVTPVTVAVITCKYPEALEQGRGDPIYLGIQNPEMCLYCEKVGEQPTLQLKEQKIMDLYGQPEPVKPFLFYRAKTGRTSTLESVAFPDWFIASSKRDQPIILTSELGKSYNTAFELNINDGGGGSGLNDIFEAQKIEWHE
Method: as §1

[3] = biological target: T3, hu-IL-36α-Avi (in-vivo biotinylated) (human, site-specifically biotinylated in vivo on the C-terminal AviTag (BirA)); assay: as above
T3 construct: also called biotinylated human IL-36α-Avi
T3 chain: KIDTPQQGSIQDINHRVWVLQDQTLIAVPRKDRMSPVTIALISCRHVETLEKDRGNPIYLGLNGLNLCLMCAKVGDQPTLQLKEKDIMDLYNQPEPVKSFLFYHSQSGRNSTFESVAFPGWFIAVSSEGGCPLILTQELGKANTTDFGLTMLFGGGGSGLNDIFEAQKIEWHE
Method: as §1

[4] = biological target: T4, hu-IL-36β-Avi (in-vivo biotinylated) (human, site-specifically biotinylated in vivo on the C-terminal AviTag (BirA)); assay: as above
T4 construct: also called biotinylated human IL-36β-Avi
T4 chain: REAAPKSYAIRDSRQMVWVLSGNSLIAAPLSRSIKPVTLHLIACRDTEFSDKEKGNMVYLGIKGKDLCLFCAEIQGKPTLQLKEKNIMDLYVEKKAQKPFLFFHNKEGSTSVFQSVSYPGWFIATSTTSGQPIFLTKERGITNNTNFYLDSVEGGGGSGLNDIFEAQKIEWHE
Method: as §1

[5] = biological target: T5, cy-IL-36α-Avi (in-vivo biotinylated) (cynomolgus monkey, limits assumed, site-specifically biotinylated in vivo on the C-terminal AviTag (BirA)); assay: as above
T5 construct: also called biotinylated cyno IL-36α-Avi
T5 chain: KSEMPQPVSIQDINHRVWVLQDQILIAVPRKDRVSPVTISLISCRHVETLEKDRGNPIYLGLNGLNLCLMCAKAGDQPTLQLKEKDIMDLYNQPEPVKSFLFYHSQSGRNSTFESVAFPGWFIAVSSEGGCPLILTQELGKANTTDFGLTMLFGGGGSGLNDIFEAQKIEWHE
Method: as §1

[6] = biological target: T6, cy-IL-36γ-Avi (in-vivo biotinylated) (cynomolgus monkey, limits assumed, site-specifically biotinylated in vivo on the C-terminal AviTag (BirA)); assay: as above
T6 construct: also called biotinylated cyno IL-36γ-Avi
T6 chain: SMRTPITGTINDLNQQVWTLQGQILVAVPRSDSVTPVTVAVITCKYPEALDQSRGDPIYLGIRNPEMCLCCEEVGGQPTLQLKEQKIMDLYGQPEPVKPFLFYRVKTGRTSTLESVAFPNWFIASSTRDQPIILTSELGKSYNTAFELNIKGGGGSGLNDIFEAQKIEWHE
Method: as §1

[7] = biological target: T5, cy-IL-36α-Avi (in-vivo biotinylated); assay: SPR (Biacore 8K), in-vivo biotinylated IL-36-Avi captured on CAP chip, bispecific IgG injected, 37°C
Method: as §1

B1: mAb2.10/mAb6_2.7 multispecific common light chain antibody (IgG, knobs-into-holes, N297G) (bispecific antibody)
heavy 1: not shown
heavy 2: not shown
light: ESVLTQPPSVSGAPGQRVTISCTGSSSNIGAHYDVHWYQQLPGTAPKLLIYGNDNRPSGVPDRFSGSKSGTSASLAITGLQAEDEADYYCQSYDYSLSGYVFGGGTKLTVLGQPKAAPSVTLFPPSSEELQANKATLVCLISDFYPGAVTVAWKADSSPVKAGVETTTPSKQSNNKYAASSYLSLTPEQWKSHKSYSCQVTHEGSTVEKTVAPTECS
notes: tags removed; also called mAb2.10/mAb6_2.7 IgG; anti-IL-36 multispecific antibody
Kd [1]: 0.97 nM
koff [1]: 6.32e-05 s⁻¹
kon [1]: 65200 M⁻¹ s⁻¹
Kd [2]: 0.72 nM
koff [2]: 0.000122 s⁻¹
kon [2]: 171000 M⁻¹ s⁻¹
Kd [3]: 1.17 nM
koff [3]: 0.000157 s⁻¹
kon [3]: 134000 M⁻¹ s⁻¹
Kd [4]: 0.63 nM
koff [4]: 4.77e-05 s⁻¹
kon [4]: 76000 M⁻¹ s⁻¹
Kd [5]: 1.93 nM
koff [5]: 0.000335 s⁻¹
kon [5]: 174000 M⁻¹ s⁻¹
Kd [6]: 0.79 nM
koff [6]: 0.00013 s⁻¹
kon [6]: 165000 M⁻¹ s⁻¹
Kd [7]: 2.57 nM
koff [7]: 0.000625 s⁻¹
kon [7]: 243000 M⁻¹ s⁻¹
